Among the data in publication PMC6614540 are stoichiometry N, hemolytic activity on rabbit erythrocytes, decrease against Gh-TDH^WT and hemolytic activity on rabbit erythrocytes, drop against Gh-TDH^WT values, retold here.

The target in assay [1] is Gh-TDH D78A mutant (Grimontia hollisae). In words: native gel or EMSA; native PAGE, 10% polyacrylamide gel, no SDS, 4 °C, running buffer 90 mM Tris-base, 2.5 mM EDTA, 80 mM boric acid pH 8.0, 90 V for 3 h, Coomassie stain.
Assay [2] addresses Gh-TDH F159D mutant (Grimontia hollisae). As to the kind of experiment: AUC; 1 mg/mL protein in 20 mM Tris-HCl pH 7.2, 42,000 rpm, 20 °C, 280 nm; c(s) distribution and apparent molecular mass.
For assay [3] the target is unchanged. As to the kind of experiment: native gel or EMSA; native PAGE, 10% polyacrylamide gel, no SDS, 4 °C, running buffer 90 mM Tris-base, 2.5 mM EDTA, 80 mM boric acid pH 8.0, 90 V for 3 h, Coomassie stain.
The target is the same in assay [4].
In assay [5] the target is Gh-TDH Y53D mutant (Grimontia hollisae). In words: AUC; 1 mg/mL protein in 20 mM Tris-HCl pH 7.2, 42,000 rpm, 20 °C, 280 nm; c(s) distribution and apparent molecular mass.
Assay [6] shares this target. In words: native gel or EMSA; native PAGE, 10% polyacrylamide gel, no SDS, 4 °C, running buffer 90 mM Tris-base, 2.5 mM EDTA, 80 mM boric acid pH 8.0, 90 V for 3 h, Coomassie stain. In general terms: A gel shift assay detects complexes by their altered migration in electrophoresis.
Assay [7] has the same target.
Assay [8] concerns the target Gh-TDH Y53D/F159D double mutant (Grimontia hollisae).
In assay [9] the target is Grimontia hollisae thermostable direct hemolysin, wild type (Grimontia hollisae). In words: AUC; 1 mg/mL protein in 20 mM Tris-HCl pH 7.2, 42,000 rpm, 20 °C, 280 nm; c(s) distribution and apparent molecular mass.

For orientation: stoichiometry N means a count of units in the complex or per binding partner. With Gh-TDH D78A mutant (natural protein), the stoichiometry N in assay [1] was determined as 4.
As for Gh-TDH F159D mutant (natural protein), the stoichiometry N in [2] and in assay [3] was 2 each time. Also, the hemolytic activity on rabbit erythrocytes, decrease against Gh-TDH^WT in assay [4] worked out at 10 fold.
As for Gh-TDH Y53D mutant (natural protein), the stoichiometry N in assay [5] and in [6] was 2 in each case. In addition, the hemolytic activity on rabbit erythrocytes, decrease against Gh-TDH^WT in assay [7] came out at 20 fold.
Substance “Gh-TDH Y53D/F159D double mutant (natural protein)” returned a hemolytic activity on rabbit erythrocytes, drop against Gh-TDH^WT in [8] of 200 fold.
With “Grimontia hollisae thermostable direct hemolysin, wild type (natural protein)”, the stoichiometry N in assay [9] amounted to 4.
